Reference: the nanobody polyreactivity screen of Harvey et al. (2022)

Test: yeast display, Sf9 membrane polyspecificity reagent, FACS + sequencing; frameworks hold sequencing errors
How it was run: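 After 36–48 hours of galactose induction, yeast (Saccharomyces cerevisiae BJ5465) displaying a synthetic nanobody library were stained at 4 °C for 1 hour with 10% biotinylated, detergent-solubilized Sf9 membrane reagent. Streptavidin microbeads enriched the stained cells before FACS sorting into low and high (top ~1%) gates on anti-HA and streptavidin fluorescence. Each clone's polyreactivity label reflects its gate of origin.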
With “QVQLVESGGGLVQAGGSLRLSCAASGSTFVSSAMGWYRQAPGKERELVARITWNGGNTYADSVKGRFTISRDNAKNTVYLQMNSLKPEDTAVYYCSTDYVVGFYYWGQGTQVTVSS” the “polyreactivity (PSR sort gate)” value was “low polyreactivity”. In the case of “QVQLVESGGGLVQAGGSLRLSCAAYGRIIRWYARGWYRPSPGKERALVAAISWSGGSTYYADSVKGRFTISRDNAKNTVYLQLNSLKPEDTAVYYCNTVYAEYDYSTVDYWGQGTQVTVSS”, the “polyreactivity (PSR sort gate)” value was “high polyreactivity”. In the case of “QVQLVESGGGLVQAGGSLRLSCAASGFTFKWYTMGWYRQAPGKERELVAGISRRGGSTYYADSVKGRFTISRDNAKNTVYLQMNSLKPEDTAVYYCAAEFPTVYFPWSEMDYWGQGTQVTVSS”, the “polyreactivity (PSR sort gate)” value was “high polyreactivity”. With “QVQLVESGGGLVQAGGSLRLSCAASGITFPDYAMGWYRQAPGKERELVAAISRGVNTYYADSVKGRFTISRDNAKNTVYLQMNSLKPEDTAVYYCNRRGSSGYDYWGQGSQVTVSS” the “polyreactivity (PSR sort gate)” value was “low polyreactivity”. In the case of “QVQLVESGGGLVQAGGSLRISCAASGITFYGYDMGWYRQAPGKERELVAAISKSGGSTHYADSVKGRFTISRDNAKNTVYLQMNSLKPEDTAVYYCAAAYWTRLRRMDYWGQGTQVTVSS”, the “polyreactivity (PSR sort gate)” value was “high polyreactivity”. With “QVQLVESGGGLVQAGGSLRLSCAASGRTFGNYAMGWYRQAPGKDRELVAALSTTGGRTSYADSVKGRFTISRDNAKNTVYLQMNSLKPEDTAVYYCNVYTTSQARRKRIDYDFWGQGTQVTVSS” the “polyreactivity (PSR sort gate)” value was “high polyreactivity”. With “QVQLVESGGGLVQAGGSLRLSCAASGRIFYANDMGWYRQAPGKERELVAAITNTVSTTYADSVKGRFTISRDNAKNTVYLQMNSLKPEDTAVYYCNADDPYVPKADMGYWGQGTQVTVSS” the “polyreactivity (PSR sort gate)” value was “low polyreactivity”. With “QVQLVESGGGLVQAGGSLRLSCAASGLIFWKYARGWYRQAPGKERELVAAIRKSVGSTYYADSVKGRFTISRDNAKNTVYLQMNSLKPEDTAVYYCAAVNAGVGSPVKRDYWGQGTQVTVSS” the “polyreactivity (PSR sort gate)” value was “high polyreactivity”. In the case of “QVQLVESGGGLVQAGGSLRLSCAASGYIFVYNAMGWYRQAPGKERELVAAISTTGGRTYYADSVKGRFTISRDNAKNTVYLLMNSLKPEDTAVYYCAARAYYAWTLFGYWGQGTQVTVSS”, the “polyreactivity (PSR sort gate)” value was “high polyreactivity”. For “QVQLVESGGGLVQAGGSLRLSCAASGSIFSSYAMGWYRQAPGKERELVASISRRGGSTYYADSVKGRFTISRDKAKNTVYLQMNSLKPEDTAVYYCTASGGPYRYYYWGQGTQVTVSS”, the “polyreactivity (PSR sort gate)” value was “low polyreactivity”. With “QVQLVESGGGLVQAGGSLRLSCAASGRIFFLYAMAWYRQAPGKEREFVAAISSSGGSTYYADSVKGRFTISRDNAKNTVYLKMNSLKPEDTAVYYCNADATWSGYIVSYDYWGQGTQVTVSS” the “polyreactivity (PSR sort gate)” value was “low polyreactivity”. In the case of “QVHLQESGSGLVQAGGSLRLSCAASGAIFPAYLMGWYRQAPGKERELVAGSSYGSITYCADSVKGRFNISRDNAKNTVYLQMNSLKPEDTAVYYCAVLRPGGDEYYYWGQGTKVTVSS”, the “polyreactivity (PSR sort gate)” value was “low polyreactivity”. With “QVQLVESGGGLVQAGGSLSLSCAASGITFDYYAMGWYRQAPGKERELVAAISGRGTSTYYADSVKGRFTLSRDNAKNTVYLQLNSLKPEDTAVYYCAADPAAQREQSFLCRRGPGYDYWGQGTQVTVSS” the “polyreactivity (PSR sort gate)” value was “low polyreactivity”. With “QVQLEESGGGLVQAGGSLRLSCAASGSIFLGYAMGWYRQAPGKERELVAAITTVGSTNYADSVKGRFTISRDNAKNTVYLQMNSVKPEDTAVYYCAAGWVGWGEKYTLDYWGQGTQVTVSS” the “polyreactivity (PSR sort gate)” value was “high polyreactivity”. For “QVQLVESGGGLVQAGGSLRLICAASGNTFVDYAMGWYRQAPGKELELVAAISRSGGSTYADSVKGRFTISRDNAKNTVYLQMNSLKPEDTAVYYCAAYSGVGYLWFDYWGQGTQVTVSS”, the “polyreactivity (PSR sort gate)” value was “low polyreactivity”. With “QVQLVESGGGLDQAGGSLRLSCAASGLIFRRYAMGWYRQAPGKEREFVAAIRWNGGTTYYADSVKGRFTISRDNAKYTVYLQMNSLKPEDTAVYYCAARVYPAYPRGYDYWGQGTQVTVSS” the “polyreactivity (PSR sort gate)” value was “high polyreactivity”. In the case of “QVQLVESGGGLVQAGGSLRLSCPDSVRIFYYNTMGWYRQAPGKERQLVAAISAGGGRTYYADSVKGRFTISRDNAKNTVYFQMNRLKPEDTAVYYCAARKRAQQGTRDHDYWGQGSQVTVSS”, the “polyreactivity (PSR sort gate)” value was “high polyreactivity”. For “QVQLVESGGGLVQAGGSLRLSCAASGSTFQPYAMGWYRQAPGKEREFVATISGSAGSTYYADSVKGRFKISRDNAKNTVYLQMNSLKPEDTAVYYCNARPARKSLDYDYWGQGTQVTVSS”, the “polyreactivity (PSR sort gate)” value was “low polyreactivity”. With “QVQLVESGGGLVQAGGTLRLSCAASGSIFGRNTMGWYRQAPGKERELVAAINSGGGTYYADSVKGRFTISRDNAKNTVYLQMNSLKPEDTAVYYCAKASRAVRHGDYWGQRTQVTVSS” the “polyreactivity (PSR sort gate)” value was “low polyreactivity”. With “QVQLVESGGGLVQAGGRLRISCAASVRIFGVNAMGWYRQAPGKERELVAVISSGGSTYYADSVKGRFTISRDNAKNTVYLQMNSLNPEDTAVYSCYAVVGRWFPYNLSDYWGQGTQVTVSS” the “polyreactivity (PSR sort gate)” value was “low polyreactivity”. With “QVQLVESGGGLVQAGGSLRLSCAASGRIISYNAMGWYRQAPAKERELVAAISWGGGSTYYADSVKGRFTISRDTAKNTVYLQMNSLKPEDTAVSYCAKGWYRIKRNDYWGQGTQVTVSS” the “polyreactivity (PSR sort gate)” value was “low polyreactivity”. For “QVQLVESGGGLVQAGGSLRLSCASSGHIFTRNAMGWYIQAPGKERELVAAISRTGGSTYYADSVKGRFTISRDNAKNTVYLQMNSLKPEDTAVYYCNARGTYTSRRGYDYWGQGTQVTVSS”, the “polyreactivity (PSR sort gate)” value was “high polyreactivity”. In the case of “QVQLVESGGGLVQAGGSLRLSCAASGLTFASYAMGWYRQAPGKERDLVARISRSGGSTYYADSVKGRFTISRDNAKNTVYLQMNSLKPEDTAVYYCAADYIFRRYPVGGIYDYDYWGQGTQVTVSS”, the “polyreactivity (PSR sort gate)” value was “high polyreactivity”. In the case of “QVQLVESGGGLVQAGGSLRLSCAASGSTFGYYARLWYRQAPGKERDLVAAISYSGGSTYYADSVKGRFTISRDNAKNTVYLQMNSLKPEDTAVYYCAARFTRQMYYWGQGTQVTVSS”, the “polyreactivity (PSR sort gate)” value was “high polyreactivity”. With “QVQLVESGGGLVQAGGSLRVSCAASGYIFTPYAMGWYRQAPGKERELVAAISSSTVRTFYADSVKGRFTISRDNAKNTVYLQMNSLKPEDTAVYYCAARGYWGQGTQVTVSS” the “polyreactivity (PSR sort gate)” value was “high polyreactivity”. For “QVQLVESGGGLVQAGGSLRLSCAASGFTLLVNAMGWYRQAPGKERELVAAITSGGRTNYADSVKGRFTISRDNAKNTVYLQMNSLKPEDTAVYYCARDWGRKPDDGQQAWYEYWGQGTQVTVSS”, the “polyreactivity (PSR sort gate)” value was “low polyreactivity”. With “QVQLVESGGGLVQAGGSLRFSCAASGITFVYYARGWYRQAPGKERELVAAITRSGDSTYYADSVKGRFTISRDNAKNTVYLQMNSLKPEDTAVYYCAAESYYSTYQVEYYDWGQGTQVTVSS” the “polyreactivity (PSR sort gate)” value was “high polyreactivity”. With “QVQLVESGGGLVQAGGSLRLSCAASGGTFEFYTMGWYRQAPGKERELVAVINASGDSTYYADSVKGRFTISRDNAKNTVYLQMNSLKPEDTAVYYCAADHRGEYDYWGQGTQVTVSS” the “polyreactivity (PSR sort gate)” value was “low polyreactivity”. For “QVQLVESGGGLVQAGGSLRLSCAASGSTYTHNTMGWYRQAPGKERELVAAISKSGGRTYYADSVKGRFTISRDHAKNTVYLQMNSLKPEVTAVYYCAARVTGVGDYYWGQGTQVTGSS”, the “polyreactivity (PSR sort gate)” value was “high polyreactivity”. For “QVQLVESGGGLVQAGGSLRLSCAASGFTSGYNAMGWYRQAPGKERELVATITRGTRTYYADSVKGRFTISRDNAKNTVYLQMNSLKPEDTAVYYCNARVYYKTYGGYYSWGQGTQVTVSS”, the “polyreactivity (PSR sort gate)” value was “high polyreactivity”. In the case of “QVQRVESGGGLVQAGGSLRLSCAASGSIFPIYAMGWYRQAPGKERELVAGITWSGGSTYYADSVKGRFTISRDNAKNTVYLQMNSLKPEDTAVYYCAAERWHPYDYWGQGTQVTVSS”, the “polyreactivity (PSR sort gate)” value was “low polyreactivity”. In the case of “QVQLVESGGGLVQAGGSLRLSCAASGRIFVYYAMGWYRQAPGKERELVAAITASGASTYYADSVKGRFTISRDNAKNTVYLQMNSLKPEDTAVYYCNVLYPRKYWQVREYYWGQGTQVTVSS”, the “polyreactivity (PSR sort gate)” value was “high polyreactivity”. For “QVQLVESGGGIVQAGGSLRLSCAASGRTFYANAMGWYRQAPGKERELVAAISTVGDGTYYADSVKGRFTISRDNAKYTVYLQMNSLKPEDTAVYYCAVRHRASGILYDYWRQGTQVTVSS”, the “polyreactivity (PSR sort gate)” value was “low polyreactivity”. In the case of “QVQLVESGGGLVQAGGSLRLSCAASGIILSDYAMGWYRPAPGKERELVAAITSGGGSTYYADSVKGRFTISRDNAKNTVYLQMNSLNPEDTAVYFCAADLTSYYGGDYWGQGTQVTVSS”, the “polyreactivity (PSR sort gate)” value was “low polyreactivity”. With “QVQLVDSGGGLVQAGGSLPLSCAASGFSFVYYAMAWYREAPGKEREFVAAITERGGSTDYADSVKGRFTISRDNAKNTVYLQMNSLKPEDTAVYYCASRNAYVYGMDYWGQGTQVTVSS” the “polyreactivity (PSR sort gate)” value was “low polyreactivity”. In the case of “QVQLVESGGGLVQAGGSLRLSCAASGNTFYIYAMGWYRQAPGKERELVAAISRGGGSTYYAESVKGRFTISRDNAMNTVYLQLNSLKPEDTAVYYCAADYYYSRYDYWGQGTQVTVSS”, the “polyreactivity (PSR sort gate)” value was “high polyreactivity”. In the case of “QVQLVESGGGLVQAGGSLRLSCAASGFILSFYTMGWYRQEPGKERELVAVISSRGGRTYYADSVKGRFTISRDNAKNTVYLQMNSLKPEDTAVYYCNKRYYFPKPFDYWGQGTQVTVSS”, the “polyreactivity (PSR sort gate)” value was “high polyreactivity”. With “QVQLVESGGGLVQAGGSLRLSCAASGRIFPYYAMGWYRQAPGKERELVATISGGGSTDYADSVKGRFTISRDNAKNTVYLQMNSLKPEDTAVYYFAKKLRGWHTIITDYDYWGQGTQVTVSS” the “polyreactivity (PSR sort gate)” value was “low polyreactivity”. In the case of “QVQLVESGGGLVQAGGSLRLSCAASGSIFGVNAMGWYRQAPGKERELVATISASGGSTYYADSVKGRFTISRDNAKNTVYLQMNSLKPEDTAVYYCATVVSPSPEMDYWGQGTQVTVSS”, the “polyreactivity (PSR sort gate)” value was “low polyreactivity”. In the case of “QVQLVESGGGLVQAGGSLRLSCAASGRTFTYYAMGWYIQAPGKERELVAAISSGGRTYYADSVKGRFTISRDNAKNTVYLQMNSLKPEDTAVYYCAADAYRSPWRLYGSRFGYWGQGTQVTVSS”, the “polyreactivity (PSR sort gate)” value was “high polyreactivity”. For “QVQLVESGGGLVQAGGSLRLSCAASGIIFVRYTMGWYRQAPGKERELVAAISSSGGSTYYADSVKGRFTISRDNAKNTVYLQLNSLKPEDTAVYYCIAEIRDNNVGYDTDYDYWGQGSQVTVSS”, the “polyreactivity (PSR sort gate)” value was “high polyreactivity”. With “QVQLVESGGGLVQAGGSLRISCAASGFTFRYNAMGWYRQAPVKERELVATISSRGGSTNYADSVKGRFTISRDNAKNTVYLLMNSLKPEDTAVYYCNNVRYRDLKRYDYWGQGTQVTVSS” the “polyreactivity (PSR sort gate)” value was “high polyreactivity”. For “QVQLVESGGGLVQAGGSLRLSCAASGSTFAIDAMGWDRQAPGQDRELVASISGGSTNYADSVKGRVTISRDKAKNTVDLQRNSLKPEDTAVYYCAARGALQHWYRYDYWGQGTQGTVSS”, the “polyreactivity (PSR sort gate)” value was “low polyreactivity”.
